# Measured values as given in publication PMC7659345, “Viral rhodopsins 1 are an unique family of light-gated cation channels” (Nature Communications, 2020).
# What was measured:
# Asp80 (position 80, …) = test: UV-vis; conditions: 10 mM citrate, 10 mM MES, 10 mM HEPES, 10 mM MOPS, 10 mM CHES and 10 mM CAPS. The pH was adjusted with HCl or NaOH in steps of 0.5-0.7 units.; Dark (ground) state with all-trans retinal bound; purified, solubilised protein
# Asp76 (position 76, …) = test: UV-vis; conditions: 10 mM citrate, 10 mM MES, 10 mM HEPES, 10 mM MOPS, 10 mM CHES and 10 mM CAPS. The pH was adjusted with HCl or NaOH in steps of 0.5-0.7 units.; Dark (ground) state with all-trans retinal bound; purified, solubilised protein
protein,measurement,setting,value
"VirChR1 (viral channelrhodopsin 1, viral rhodopsin group 1) (uncultured virus (Tara Oceans metagenomic contig TARA-146-SRF-0.22-3-C376786_1)) (protein) MKDKELLLLTVKISLVVQIISGIVSSFGIFIKLAPKDYILRDILIIETVVQIVEAIFYVYIYLSLESLDNNVITSRRYFDWVITTPIMLISTILFMRYNIRILYDKSKNKQNRQNKPKSNLTTYNVIKNNKDTIIKIVIGNFIMLCFGYLGEVDILSKTISIPIGFIFFFYVFYLIWREFGSYTQQNQILFWVLFIVWGLYGVSACLPVLQKNICYNILDIISKNFYGLYIFYYIYQHRLVV",pKa,"Asp80 (position 80, …)",3.5
"OLPVR1 (viral rhodopsin group 1, viral channelrhodopsin) (Organic Lake phycodnavirus) (protein) MDNIIMTAYISIFVQIITAIISVYGLFIPLNFKDIILREILILELIVQIIEFIFYIWLIITLQSINEDITYVRYFDWVLTTPVMLLTTVYFFEYMNSDDGIRKKEINDRDYVYLFYICLSNFFMLLIGYLGETKQINKMLTLFGGSFFLFLTFYLLYVKYTKENWMNYIVFYFMFLVWFLYGFAFMFPFSIKNQMYNILDIVSKNIYSIFIFIVILNQSYKLL",pKa,"Asp76 (position 76, …)",4.8
